Results: the supplement of paper PMC10126150
± gives the standard deviation of the averaged measurements.

Tested on: ATP
Test: switch fluorescence ratio, 500 uM ATP over buffer (Cy3 cluster intensity, sum of 5 cycles each) (fold (ratio)); higher = stronger signal-on switching upon ATP binding; sequences stand for … in TCGTCGGCAGCGTCAGATGTGTATAAGAGACAGTTTTTTTTTTTTTTTTTTTTTTTTT…TC
Settings: aptamer strand: ATP DNA aptamer (quencher-CACCTGGGGGAGTATTGCGGAGGAAGG + anchor), 100 nM annealed; ATP concentration: 500 uM
How it was run: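 The quencher-labelled ATP aptamer, at 100 nM, was annealed to Cy3-labelled switching-strand clusters on a modified Illumina MiSeq flow-cell. The clusters were imaged in selection buffer, then after 15 min with 500 uM ATP at 22 °C, and this buffer/ATP cycle ran five times with NaOH stripping and re-annealing between runs. Per-cluster fluorescence ratios, summed target-cycle over summed buffer-cycle Cy3 intensity, were averaged per switch-domain sequence. Clusters outside 100-1000 RFU were excluded.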
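Also: ATP exposure 15 min at 22 °C before imaging.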

| Sequence | switch fluorescence ratio |
| --- | --- |
| TTCAACATTT | 1.04 ± 0.011 |
| TTTGTTACGG | 0.978 ± 0.046 |
| TTTATTTGGT | 1.03 ± 0.041 |
| TCTTTGCAGC | 1.025 ± 0.0041 |
| GGGTTGTAGT | 1.02 ± 0.032 |
| TGCACCAGGA | 1.13 ± 0.067 |
| AGGGAAAGGG | 1.02 ± 0.02 |
| CCAACAGGTT | 1.69 ± 0.079 |
| CGGACCGGAA | 1.011 ± 0.01 |
| GGATGTTGTG | 0.974 ± 0.04 |
| TTTCAGACAT | 1.016 ± 0.008 |
| GTTATAGAGG | 1.03 ± 0.042 |
| GCATATGGCT | 1 ± 0.031 |
| ATTCCCAGGG | 2.067 ± 0.017 |
| GTGGTTGGGT | 0.979 ± 0.023 |
| ATATGGATAA | 1.01 ± 0.012 |
| TTTCAGTTTT | 1.1 ± 0.22 |
| TTAGTGTGCT | 1 ± 0.026 |
| CTTTAAGGTG | 1.39 ± 0.062 |
| CTAATAGTTT | 1 ± 0.032 |
| GAATCCAGTT | 0.989 ± 0.02 |
| GCCTAGCATA | 1.02 ± 0.018 |
| AGGGAAGTTA | 1.01 ± 0.014 |

| Sequence | switch fluorescence ratio |
| --- | --- |
| GCCGTGGAG | 1.0133 ± 0.00012 |
| GCTGAAGTTT | 0.979 ± 0.038 |
| TTGTAGGAGC | 0.965 ± 0.14 |
| CTTTTTAGTC | 1.03 ± 0.013 |
| CACACGTACA | 1.769 ± 0.01 |
| GAGGGACGGC | 0.999 ± 0.059 |
| TAGGGCAGGT | 1.01 ± 0.036 |
| AGGTTGTTTT | 0.977 ± 0.028 |
| ACCCCTGGGC | 1.16 ± 0.041 |
| GGTAGTATGG | 1 ± 0.03 |
| CCGAGTTAAG | 1.08 ± 0.012 |
| GGGGGATACT | 1.04 ± 0.037 |
| ATGTTGTGGG | 1 ± 0.013 |
| TCCCATTTTG | 1.01 ± 0.043 |
| TGGGGGATTC | 1.03 ± 0.067 |
| GGGATATCTG | 0.98847 ± 0.00072 |
| AAGGCGTGAG | 1.02 ± 0.016 |
| TGTTATAAAT | 0.999 ± 0.032 |
| GGCGAAAATA | 1.007 ± 0.0079 |
| GATAGAAAGA | 0.964 ± 0.025 |
| AGGTTGTATG | 0.97 ± 0.039 |
| TAGATGGGGC | 0.967 ± 0.029 |
| AAGTTGTACG | 0.9989 ± 0.0032 |

| Sequence | switch fluorescence ratio |
| --- | --- |
| TTTCGTACTC | 1.09 ± 0.13 |
| AAACGTCTGA | 0.9936 ± 0.0016 |
| TACAAAATGG | 0.997 ± 0.012 |
| GACTTGCTGG | 0.9876 ± 0.0044 |
| TTAGAAGGG | 0.965 ± 0.012 |
| GCGTTAATGG | 1 ± 0.02 |
| GAGGGTATGG | 1.014 ± 0.0075 |
| GAGCGGGGGA | 1.03 ± 0.017 |
| GTTGTTATGT | 1.01 ± 0.015 |
| GCTTTACTGT | 1.01 ± 0.013 |
| TTGGCACCCG | 1.04 ± 0.034 |
| CGTGAGCTTG | 1.0004 ± 4.9e-05 |
| CCATCTAGTT | 0.9681 ± 0.0047 |
| TTTAAGGCTC | 0.994 ± 0.032 |
| GGGGGGTATG | 0.982 ± 0.022 |
| GAGAGTACGT | 0.964 ± 0.013 |
| GATATCTCCT | 1.09 ± 0.011 |
| TGCTGTAAGG | 1 ± 0.036 |
| CTCGCTGCGG | 1.029 ± 0.0073 |
| ATGGTAGGGT | 1.01 ± 0.018 |
| ATCGTGGATT | 0.969 ± 0.019 |
| CGTACCAACC | 1.2 ± 0.029 |
| TGGGGGCAGC | 1.02 ± 0.025 |

| Sequence | switch fluorescence ratio |
| --- | --- |
| ATGCCAATAA | 1.01 ± 0.03 |
| TGAAGATTTA | 1.03 ± 0.017 |
| AGTGGGACGC | 1 ± 0.044 |
| AATCATATTT | 1.02 ± 0.018 |
| AATCGTTAAA | 0.9812 ± 0.0069 |
| GGGTCGGGAA | 1.006 ± 0.0032 |
| TTAGTTTGTC | 0.986 ± 0.063 |
| AGCTGACTGC | 1.01 ± 0.025 |
| GGGGCATAGT | 0.991 ± 0.02 |
| CTCGGTTTAG | 1 ± 0.038 |
| GATCAATTAA | 0.9942 ± 0.007 |
| TTTAGTCTCA | 1.017 ± 0.0089 |
| CGTCCTGGGT | 0.995 ± 0.011 |
| AAAAAAAGGT | 1.021 ± 0.01 |
| GCTGTCGCTT | 1.03 ± 0.027 |
| TTGGATAGCG | 0.982 ± 0.017 |
| GTTGAGGAGG | 0.9891 ± 0.0086 |
| CGATATATTG | 0.988 ± 0.013 |
| GGAAGGGGTA | 1.01 ± 0.048 |
| TCCAACTGCA | 1.5 ± 0.087 |
| GTTCTAGATT | 1.03 ± 0.067 |
| GATGATATTG | 0.992 ± 0.012 |
| CATGGGTGCG | 1.02 ± 0.014 |

| Sequence | switch fluorescence ratio |
| --- | --- |
| AGGGTGTGAT | 1.04 ± 0.026 |
| CGTATTCATA | 0.977 ± 0.037 |
| TTTGGTGTTT | 1.01 ± 0.035 |
| TTTAATTTGT | 1 ± 0.019 |
| ATGGATAATT | 1.04 ± 0.011 |
| TACCAGTGCG | 1.19 ± 0.15 |
| ATGGTCCATG | 0.995 ± 0.022 |
| ATGAGTAGGG | 1.018 ± 0.0098 |
| TTTTAGGAAG | 0.9937 ± 0.0097 |
| GATATAGCTC | 0.999 ± 0.038 |
| GGTATAAGGA | 0.996 ± 0.016 |
| ATGTTAGCGT | 0.9941 ± 0.0048 |
| TCGTGCTTTG | 1.0145 ± 0.00045 |
| CGGAGTGCGG | 0.983 ± 0.064 |
| ACACCATTAA | 1.02 ± 0.03 |
| CAGAAGGGGG | 1.11 ± 0.16 |
| GGTTTTGTTT | 0.9996 ± 0.0075 |
| GCTGTTGTTG | 0.9918 ± 0.0051 |
| CGTTGTAAAT | 0.9823 ± 0.0071 |
| GGGGATGAGA | 0.986 ± 0.01 |
| GCGTTGCATT | 1 ± 0.017 |
| CGGGGACTTG | 0.987 ± 0.029 |
| CGAATTTTCG | 0.976 ± 0.012 |

| Sequence | switch fluorescence ratio |
| --- | --- |
| AAGGATGTAT | 0.969 ± 0.036 |
| AAAGGGCATC | 1.01 ± 0.058 |
| GAATTTTTTC | 1.02 ± 0.016 |
| TATCGTAGGG | 1 ± 0.022 |
| TTAAAATCAC | 1.09 ± 0.077 |
| TCGGTGGCGT | 1.02 ± 0.048 |
| ATCAGACTTG | 1.023 ± 0.0012 |
| GCTCTTTAGA | 0.962 ± 0.018 |
| AGATTCCGCT | 1.108 ± 0.011 |
| GTGTGGGTTC | 0.982 ± 0.012 |
| ACTAGAGGCA | 1 ± 0.024 |
| CGTTTCGTTG | 0.9635 ± 0.0019 |
| GGATGAACGG | 1.01 ± 0.079 |
| CGTCGGCGCC | 1.09 ± 0.12 |
| AGGGTGTTAT | 0.993 ± 0.022 |
| TTAAATGAAT | 0.991 ± 0.022 |
| GCAGCTGGCG | 1.04 ± 0.017 |
| TCCAAAGATG | 0.9892 ± 0.005 |
| GAGGGTTAAT | 1.02 ± 0.02 |
| TAAGCCATTA | 1.01 ± 0.0038 |
| AAATGCAGCT | 0.977 ± 0.016 |
| TATTGGAGGG | 0.974 ± 0.019 |
| TAGTTGAGTT | 0.982 ± 0.029 |

| Sequence | switch fluorescence ratio |
| --- | --- |
| CTTACGGCAC | 1.82 ± 0.062 |
| CAGGGCGC | 1.02 ± 0.088 |
| ATATGCAGGA | 0.965 ± 0.03 |
| TTTCGAATTC | 1.006 ± 0.0084 |
| CGAATTAGAA | 0.982 ± 0.042 |
| AATGTATGTT | 1.032 ± 0.0074 |
| GATCATAATG | 1.01 ± 0.021 |
| TCTAAGAGTC | 0.975 ± 0.039 |
| AGTTGGGGGA | 0.984 ± 0.014 |
| CCGGGAGTCG | 1.06 ± 0.017 |
| TGTGAGCTGT | 1.0077 ± 0.00016 |
| TCCTGGTGAT | 1.22 ± 0.12 |
| TTTAATTGGG | 0.983 ± 0.039 |
| TTGCTTGAGC | 1.006 ± 0.0092 |
| GATGAGTGGT | 0.979 ± 0.02 |
| GGCACGGGGG | 1.02 ± 0.008 |
| AAATGCTGGG | 0.99 ± 0.031 |
| TTGCGTTGCG | 0.9685 ± 0.0036 |
| AAGCGTGGGA | 1.02 ± 0.039 |
